Data taken from publication PMC5415409.

Target: Growth Factor Receptor-bound 2 (GRB2), endogenous in HEK cells (human (endogenous in HEK)) (UniProt P62993)
Assay: co-IP

densitometry ratio SWELL1^Δ91/+35/GRB2 in the GRB2 immunoprecipitate: 0.07
Substance: SWELL1^Δ91/+35 mutant, transiently expressed in HEK cells (natural protein)
